What follows are sequences tested on Escherichia coli TOP10 (assay: shrunken log2 fold change of peptide-encoding DNA abundance (4.5 h post-induction vs induction); higher = less antimicrobial activity (less host growth inhibition)). Settings: time post-induction: 4.5 h; library: site-saturation at positions 5, 18, 19, 20.
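Also: peptides expressed intracellularly from a pBAD plasmid library in pooled LB shake-flask culture, induced with 0.3% L-arabinose, DNA abundance read by NGS, three biological replicates, DESeq2 with apeglm shrinkage.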

| Sequence | shrunken log2 fold change |
| --- | --- |
| RRIRMRPPRLPRPRPRPRWYPRP | 0.0191 |
| RRIRKRPPRLPRPRPRPTLMPRP | 0.758 |
| RRIRQRPPRLPRPRPRPIQVPRP | -0.201 |
| RRIRYRPPRLPRPRPRPHKIPRP | -0.226 |
| RRIRGRPPRLPRPRPRPYNTPRP | 0.328 |
| RRIRWRPPRLPRPRPRPSTTPRP | 0.221 |
| RRIRKRPPRLPRPRPRPQLVPRP | 0.225 |
| RRIRNRPPRLPRPRPRPLSAPRP | -0.097 |
| RRIRWRPPRLPRPRPRPSTNPRP | -0.127 |
| RRIRARPPRLPRPRPRPSINPRP | -0.308 |
| RRIRFRPPRLPRPRPRPSHHPRP | -0.534 |
| RRIRIRPPRLPRPRPRPMVTPRP | -0.018 |
| RRIRLRPPRLPRPRPRPSLVPRP | -0.0388 |
| RRIRQRPPRLPRPRPRPCSGPRP | -0.0532 |
| RRIRQRPPRLPRPRPRPKRHPRP | -0.0733 |
| RRIRDRPPRLPRPRPRPGNPPRP | -5.31e-05 |
| RRIRVRPPRLPRPRPRPHAEPRP | 0.0163 |
| RRIRPRPPRLPRPRPRPAVVPRP | 0.197 |
| RRIRWRPPRLPRPRPRPHQGPRP | 0.0993 |
| RRIRCRPPRLPRPRPRPTQVPRP | 0.0177 |
| RRIRYRPPRLPRPRPRPQINPRP | -0.669 |
| RRIRIRPPRLPRPRPRPWTKPRP | 0.0573 |

| Sequence | shrunken log2 fold change |
| --- | --- |
| RRIRDRPPRLPRPRPRPEKAPRP | 0.236 |
| RRIRNRPPRLPRPRPRPFAVPRP | -0.398 |
| RRIRLRPPRLPRPRPRPRVHPRP | 0.0142 |
| RRIRFRPPRLPRPRPRPLHCPRP | 0.0254 |
| RRIRRRPPRLPRPRPRPYEIPRP | -0.39 |
| RRIRMRPPRLPRPRPRPWSVPRP | -0.0283 |
| RRIRCRPPRLPRPRPRPAGKPRP | 0.0831 |
| RRIRARPPRLPRPRPRPQQEPRP | -0.0196 |
| RRIRVRPPRLPRPRPRPFGSPRP | -0.137 |
| RRIRWRPPRLPRPRPRPIVQPRP | 0.0969 |
| RRIRPRPPRLPRPRPRPFWSPRP | -0.143 |
| RRIRTRPPRLPRPRPRPECCPRP | 0.348 |
| RRIRLRPPRLPRPRPRPTTEPRP | -0.00894 |
| RRIRHRPPRLPRPRPRPMHDPRP | -0.0353 |
| RRIRGRPPRLPRPRPRPHEHPRP | 1.13 |
| RRIRIRPPRLPRPRPRPYQCPRP | -0.349 |
| RRIRCRPPRLPRPRPRPWYMPRP | -0.838 |
| RRIRHRPPRLPRPRPRPYVLPRP | -0.14 |
| RRIRARPPRLPRPRPRPNQPPRP | 0.0397 |
| RRIRERPPRLPRPRPRPAYPPRP | -0.403 |
| RRIRKRPPRLPRPRPRPDYPPRP | -0.0226 |
| RRIRMRPPRLPRPRPRPHTTPRP | -0.0908 |

| Sequence | shrunken log2 fold change |
| --- | --- |
| RRIRCRPPRLPRPRPRPTSWPRP | 0.0567 |
| RRIRVRPPRLPRPRPRPMMLPRP | -0.0127 |
| RRIRQRPPRLPRPRPRPGDTPRP | -0.223 |
| RRIRNRPPRLPRPRPRPRRWPRP | 0.701 |
| RRIRHRPPRLPRPRPRPFYAPRP | -0.724 |
| RRIRGRPPRLPRPRPRPCGGPRP | 0.472 |
| RRIRHRPPRLPRPRPRPPTVPRP | 0.184 |
| RRIRWRPPRLPRPRPRPVQWPRP | 0.251 |
| RRIRWRPPRLPRPRPRPPNYPRP | -0.0821 |
| RRIRARPPRLPRPRPRPTRSPRP | 0.258 |
| RRIRVRPPRLPRPRPRPGYYPRP | -0.248 |
| RRIRVRPPRLPRPRPRPIGQPRP | 0.0922 |
| RRIRQRPPRLPRPRPRPSPDPRP | 0.262 |
| RRIRNRPPRLPRPRPRPNNAPRP | 0.0167 |
| RRIRFRPPRLPRPRPRPAEHPRP | 0.26 |
| RRIRERPPRLPRPRPRPLDIPRP | -0.0284 |
| RRIRFRPPRLPRPRPRPTLKPRP | -0.0426 |
| RRIRHRPPRLPRPRPRPIIIPRP | -0.247 |
| RRIRMRPPRLPRPRPRPCFIPRP | -0.496 |
| RRIRMRPPRLPRPRPRPIGVPRP | 0.0547 |
| RRIRKRPPRLPRPRPRPNEGPRP | 0.0728 |
| RRIRKRPPRLPRPRPRPVPPPRP | 1.85 |

| Sequence | shrunken log2 fold change |
| --- | --- |
| RRIRPRPPRLPRPRPRPHITPRP | -0.759 |
| RRIRSRPPRLPRPRPRPICWPRP | 0.0446 |
| RRIRSRPPRLPRPRPRPFKLPRP | -0.71 |
| RRIRHRPPRLPRPRPRPFSVPRP | -1.26 |
| RRIRARPPRLPRPRPRPPNKPRP | 0.23 |
| RRIRYRPPRLPRPRPRPHDYPRP | -0.119 |
| RRIRIRPPRLPRPRPRPMWLPRP | -0.233 |
| RRIRERPPRLPRPRPRPYTIPRP | -0.267 |
| RRIRYRPPRLPRPRPRPNYKPRP | -1.01 |
| RRIRHRPPRLPRPRPRPLCNPRP | -0.337 |
| RRIRNRPPRLPRPRPRPMMNPRP | 0.274 |
| RRIRYRPPRLPRPRPRPTFDPRP | -0.76 |
| RRIRGRPPRLPRPRPRPNMWPRP | 0.274 |
| RRIRFRPPRLPRPRPRPGNTPRP | -0.12 |
| RRIRHRPPRLPRPRPRPGIPPRP | 0.0292 |
| RRIRERPPRLPRPRPRPMLRPRP | -0.0352 |
| RRIRIRPPRLPRPRPRPDAQPRP | -0.0523 |
| RRIRDRPPRLPRPRPRPAQYPRP | -0.0825 |
| RRIRNRPPRLPRPRPRPYYKPRP | -1.46 |
| RRIRGRPPRLPRPRPRPAATPRP | 3.06 |
| RRIRYRPPRLPRPRPRPVFGPRP | -0.415 |
| RRIRLRPPRLPRPRPRPNYWPRP | -0.0686 |

| Sequence | shrunken log2 fold change |
| --- | --- |
| RRIRVRPPRLPRPRPRPVELPRP | 0.104 |
| RRIRFRPPRLPRPRPRPCNAPRP | -0.23 |
| RRIRNRPPRLPRPRPRPEMNPRP | 0.0511 |
| RRIRSRPPRLPRPRPRPKNMPRP | -0.324 |
| RRIRVRPPRLPRPRPRPAADPRP | 0.437 |
| RRIRDRPPRLPRPRPRPQDNPRP | -0.0684 |
| RRIRVRPPRLPRPRPRPLCLPRP | -0.376 |
| RRIRWRPPRLPRPRPRPSAVPRP | 0.6 |
| RRIRCRPPRLPRPRPRPMEYPRP | -0.17 |
| RRIRERPPRLPRPRPRPAKSPRP | 0.0676 |
| RRIRERPPRLPRPRPRPPDWPRP | 0.674 |
| RRIRARPPRLPRPRPRPLGSPRP | 0.471 |
| RRIRNRPPRLPRPRPRPTPEPRP | 0.0889 |
| RRIRERPPRLPRPRPRPWYIPRP | -0.0599 |
| RRIRKRPPRLPRPRPRPVCLPRP | 0.0948 |
| RRIRMRPPRLPRPRPRPSLLPRP | 0.0721 |
| RRIRMRPPRLPRPRPRPCQTPRP | 0.0245 |
| RRIRNRPPRLPRPRPRPLQEPRP | -0.0474 |
| RRIRMRPPRLPRPRPRPTRFPRP | 0.261 |
| RRIRPRPPRLPRPRPRPFKFPRP | -0.469 |
| RRIRYRPPRLPRPRPRPGDGPRP | 0.0695 |
